According to article PMC5137437:
Like-named read-outs stand apart in the source and are kept apart here.

Assays:
Klf4 ZnF1-3 E446P [1] = molecular target: T1, Klf4 ZnF1-3 E446P (Mus musculus, UniProt Q60793 396-483, E446P); assay: fluorescence polarization
Klf4 ZnF1-3 WT (E446) [2] = molecular target: T2, Klf4 ZnF1-3 WT (E446) (Mus musculus, UniProt Q60793 396-483); assay: fluorescence polarization
Klf4 ZnF1-3 E446P [3] = molecular target: T1, Klf4 ZnF1-3 E446P; assay: X-ray crystallography
Klf4 ZnF1-3 E446P [4] = molecular target: T1, Klf4 ZnF1-3 E446P; assay: X-ray crystallography; remark: listed apart in the source
Klf4 ZnF1-3 WT (E446) [5] = molecular target: T2, Klf4 ZnF1-3 WT (E446); assay: fluorescence polarization; remark: listed apart in the source
Klf4 ZnF1-3 E446P [6] = molecular target: T1, Klf4 ZnF1-3 E446P; assay: fluorescence polarization; remark: listed apart in the source
Klf4 ZnF1-3 WT (E446) [7] = molecular target: T2, Klf4 ZnF1-3 WT (E446); assay: X-ray crystallography
Klf4 ZnF1-3 E446D = Klf4 ZnF1-3 E446D (Mus musculus, UniProt Q60793 396-483, E446D); assay: X-ray crystallography
Klf4 ZnF1-3 E446D, sequence (Q60793 396-483 E446D): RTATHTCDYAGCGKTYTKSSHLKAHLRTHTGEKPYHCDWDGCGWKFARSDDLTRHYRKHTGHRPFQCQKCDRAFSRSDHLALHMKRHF

Klf4 ZnF1-3 WT (E446) [8] = molecular target: T2, Klf4 ZnF1-3 WT (E446); assay: X-ray crystallography; remark: listed apart in the source

T1 sequence (Q60793 396-483 E446P): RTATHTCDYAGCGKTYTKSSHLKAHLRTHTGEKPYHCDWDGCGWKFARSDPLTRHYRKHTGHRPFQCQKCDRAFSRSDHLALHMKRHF
T2 sequence (Q60793 396-483): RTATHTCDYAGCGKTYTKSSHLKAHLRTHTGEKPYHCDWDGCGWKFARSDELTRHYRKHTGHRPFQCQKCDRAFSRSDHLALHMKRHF

B1: 5mCpG hemimethylated FP probe (dsDNA)
DNA 1: GAGGCGTGGC
DNA 2: TTGCCACGCCTC
modifications: 5mC at position 5 of strand 1; strand 2 unmethylated
With B1 the Kd (Klf4 ZnF1-3 E446P [1]) was under 5 nM and the binding signal (Klf4 ZnF1-3 WT (E446) [2]) was 1.5 fold tighter than P1 with N1.

B2: 5mCpG/5mCpG crystal duplex (dsDNA)
DNA 1: GAGGCGTGGC
DNA 2: GCCACGCCTC
modifications: 5mC at position 5 of strand 1 and position 5 of strand 2
B2: binds (Klf4 ZnF1-3 E446P [3]).

B3: TpG crystal duplex (E446P complex) (dsDNA)
DNA 1: GAGGTGTGGC
DNA 2: GCCACACCTC
modifications: methylation of the opposite-strand CpA not stated in the material
B3: binds (Klf4 ZnF1-3 E446P [4]).

B4: TpG FP probe (dsDNA)
DNA 1: GAGGTGTGGC
DNA 2: TTGCCACACCTC
B4: binds (Klf4 ZnF1-3 WT (E446) [5]).

B5: CpG unmodified FP probe (dsDNA)
DNA 1: GAGGCGTGGC
DNA 2: TTGCCACGCCTC
For B5, the binding signal (Klf4 ZnF1-3 E446P [6]) was ~4 fold tighter than P1 with N1.

B6: TpG/CpA crystal duplex (dsDNA)
DNA 1: GAGGTGTGGC
DNA 2: GCCACACCTC
B6: binds (Klf4 ZnF1-3 WT (E446) [7]).

B7: CpG/CpG crystal duplex (dsDNA)
DNA 1: GAGGCGTGGC
DNA 2: GCCACGCCTC
B7: binds (Klf4 ZnF1-3 E446D).

B8: TpG/5mCpA crystal duplex (dsDNA)
DNA 1: GAGGTGTGGC
DNA 2: GCCACACCTC
modifications: 5mC at position 5 of strand 2
B8: binds (Klf4 ZnF1-3 WT (E446) [8]).
